The record followed here is the RNAGym collection of RNA variant scans (doi:10.1021/acssynbio.7b00057).

First the molecules themselves.
B1: Pistol ribozyme (parent)
chain: GGGUCGUUGUUCCAUAAUCGCGUGGAUAUGGCACGCAAGUUUCUACCGGGCACCGUAAAUGUCCGACUGGAGCCGUUCGGGCGGCUAUAAACAGACCUCAGGCCCGAAGCGUGGCGGCACCUGCCGCCGGUGGUAAAAAAGAUCGGAAGAGCACACGUCU

In the series the parent is B1. The series is described as follows: aptazyme ON/OFF ratio, guanine; higher = stronger switching; co-transcriptional cleavage with and without guanine.
As for GGGUCGAGUGUGUAUAAUCGCGUGGAUAUGGCACGCAAGUUUCUACCGGGCACCGUAAAUGUCCGACUGGAGCCGUUCGGGCGGCUAUAAACAGACCUCAGGCCCGAAGCGUGGCGGCACCUGCCGCCGGUGGUAAAAAAGAUCGGAAGAGCACACGUCU, the “aptazyme ON/OFF ratio” value was found to be 1.3.
On to GGGUCGAGUGUGGAUAAUCGCGUGGAUAUGGCACGCAAGUUUCUACCGGGCACCGUAAAUGUCCGACUGGAGCCGUUCGGGCGGCUAUAAACAGACCUCAGGCCCGAAGCGUGGCGGCACCUGCCGCCGGUGGUAAAAAAGAUCGGAAGAGCACACGUCU, for which the “aptazyme ON/OFF ratio” value is 1.11.
GGGUCGAGUCGGCAUAAUCGCGUGGAUAUGGCACGCAAGUUUCUACCGGGCACCGUAAAUGUCCGACUGGAGCCGUUCGGGCGGCUAUAAACAGACCUCAGGCCCGAAGCGUGGCGGCACCUGCCGCCGGUGGUAAAAAAGAUCGGAAGAGCACACGUCU: the “aptazyme ON/OFF ratio” value amounted to 1.45.
Regarding GGGUCGAGUCGACAUAAUCGCGUGGAUAUGGCACGCAAGUUUCUACCGGGCACCGUAAAUGUCCGACUGGAGCCGUUCGGGCGGCUAUAAACAGACCUCAGGCCCGAAGCGUGGCGGCACCUGCCGCCGGUGGUAAAAAAGAUCGGAAGAGCACACGUCU, the “aptazyme ON/OFF ratio” value turned out to be 1.5.
GGGUCGAGUCGUCAUAAUCGCGUGGAUAUGGCACGCAAGUUUCUACCGGGCACCGUAAAUGUCCGACUGGAGCCGUUCGGGCGGCUAUAAACAGACCUCAGGCCCGAAGCGUGGCGGCACCUGCCGCCGGUGGUAAAAAAGAUCGGAAGAGCACACGUCU: the “aptazyme ON/OFF ratio” value is 1.21.
GGGUCGAGUCCGGAUAAUCGCGUGGAUAUGGCACGCAAGUUUCUACCGGGCACCGUAAAUGUCCGACUGGAGCCGUUCGGGCGGCUAUAAACAGACCUCAGGCCCGAAGCGUGGCGGCACCUGCCGCCGGUGGUAAAAAAGAUCGGAAGAGCACACGUCU: the “aptazyme ON/OFF ratio” value was determined as 1.11.
In the case of GGGUCGAGUCCGUAUAAUCGCGUGGAUAUGGCACGCAAGUUUCUACCGGGCACCGUAAAUGUCCGACUGGAGCCGUUCGGGCGGCUAUAAACAGACCUCAGGCCCGAAGCGUGGCGGCACCUGCCGCCGGUGGUAAAAAAGAUCGGAAGAGCACACGUCU, the “aptazyme ON/OFF ratio” value stood at 1.46.
Then GGGUCGAGUGUUAAUAAUCGCGUGGAUAUGGCACGCAAGUUUCUACCGGGCACCGUAAAUGUCCGACUGGAGCCGUUCGGGCGGCUAUAAACAGACCUCAGGCCCGAAGCGUGGCGGCACCUGCCGCCGGUGGUAAAAAAGAUCGGAAGAGCACACGUCU, with 1.49; and GGGUCGAGUCCUUAUAAUCGCGUGGAUAUGGCACGCAAGUUUCUACCGGGCACCGUAAAUGUCCGACUGGAGCCGUUCGGGCGGCUAUAAACAGACCUCAGGCCCGAAGCGUGGCGGCACCUGCCGCCGGUGGUAAAAAAGAUCGGAAGAGCACACGUCU, with 1.23; and GGGUCGAGUCCUAAUAAUCGCGUGGAUAUGGCACGCAAGUUUCUACCGGGCACCGUAAAUGUCCGACUGGAGCCGUUCGGGCGGCUAUAAACAGACCUCAGGCCCGAAGCGUGGCGGCACCUGCCGCCGGUGGUAAAAAAGAUCGGAAGAGCACACGUCU, with 1.14.
Then GGGUCGAGUCCUGAUAAUCGCGUGGAUAUGGCACGCAAGUUUCUACCGGGCACCGUAAAUGUCCGACUGGAGCCGUUCGGGCGGCUAUAAACAGACCUCAGGCCCGAAGCGUGGCGGCACCUGCCGCCGGUGGUAAAAAAGAUCGGAAGAGCACACGUCU, with 1.2.
Then GGGUCGAGUCGGUAUAAUCGCGUGGAUAUGGCACGCAAGUUUCUACCGGGCACCGUAAAUGUCCGACUGGAGCCGUUCGGGCGGCUAUAAACAGACCUCAGGCCCGAAGCGUGGCGGCACCUGCCGCCGGUGGUAAAAAAGAUCGGAAGAGCACACGUCU, with 1.18.
For the variant GGGUCGAGUCGGGAUAAUCGCGUGGAUAUGGCACGCAAGUUUCUACCGGGCACCGUAAAUGUCCGACUGGAGCCGUUCGGGCGGCUAUAAACAGACCUCAGGCCCGAAGCGUGGCGGCACCUGCCGCCGGUGGUAAAAAAGAUCGGAAGAGCACACGUCU, the “aptazyme ON/OFF ratio” value came to 1.26.
Take GGGUCGAGUCGGAAUAAUCGCGUGGAUAUGGCACGCAAGUUUCUACCGGGCACCGUAAAUGUCCGACUGGAGCCGUUCGGGCGGCUAUAAACAGACCUCAGGCCCGAAGCGUGGCGGCACCUGCCGCCGGUGGUAAAAAAGAUCGGAAGAGCACACGUCU: the “aptazyme ON/OFF ratio” value was 1.36.
On to GGGUCGAGUGUUCAUAAUCGCGUGGAUAUGGCACGCAAGUUUCUACCGGGCACCGUAAAUGUCCGACUGGAGCCGUUCGGGCGGCUAUAAACAGACCUCAGGCCCGAAGCGUGGCGGCACCUGCCGCCGGUGGUAAAAAAGAUCGGAAGAGCACACGUCU, for which the “aptazyme ON/OFF ratio” value was 1.28.
With GGGUCGAGUGUGCAUAAUCGCGUGGAUAUGGCACGCAAGUUUCUACCGGGCACCGUAAAUGUCCGACUGGAGCCGUUCGGGCGGCUAUAAACAGACCUCAGGCCCGAAGCGUGGCGGCACCUGCCGCCGGUGGUAAAAAAGAUCGGAAGAGCACACGUCU, the “aptazyme ON/OFF ratio” value was 1.15.
The result for GGGUCGAGUGUACAUAAUCGCGUGGAUAUGGCACGCAAGUUUCUACCGGGCACCGUAAAUGUCCGACUGGAGCCGUUCGGGCGGCUAUAAACAGACCUCAGGCCCGAAGCGUGGCGGCACCUGCCGCCGGUGGUAAAAAAGAUCGGAAGAGCACACGUCU reads 1.21; that for GGGUCGAGUCCUCAUAAUCGCGUGGAUAUGGCACGCAAGUUUCUACCGGGCACCGUAAAUGUCCGACUGGAGCCGUUCGGGCGGCUAUAAACAGACCUCAGGCCCGAAGCGUGGCGGCACCUGCCGCCGGUGGUAAAAAAGAUCGGAAGAGCACACGUCU, 1.36.
